Laboratory results taken from patent publication US20180044434A1 (PUBLIC UNIVERSITY CORPORATION YOKOHAMA CITY UNIVERSITY, published 2018).
Like-named read-outs stand apart in the source and are kept apart here.

How the values were obtained:
[1] = molecular target: T1, full-length recombinant human PAD4 (human, UniProt Q9UM07 1-663); experiment: ELISA, immobilized human PAD4
T1 construct: Full-length recombinant; also called peptidylarginine deiminase 4

[2] = molecular target: T1, full-length recombinant human PAD4; experiment: ELISA, immobilized human PAD4; remark: listed apart in the source
[3] = molecular target: T1, full-length recombinant human PAD4; experiment: ELISA, immobilized human PAD4; remark: listed apart in the source
[4] = molecular target: T1, full-length recombinant human PAD4; experiment: ELISA, immobilized human PAD4; remark: listed apart in the source
[5] = molecular target: T1, full-length recombinant human PAD4; experiment: SPR (Biacore T200), antibody captured, human PAD4 analyte
Description: The humanized anti-PAD4 antibodies derived from G8 and H7 were subjected to Biacore (GE Healthcare, Biacore T200) assay to evaluate their affinity. At that time, the combination of the frameworks was such that the H-chain framework was H4.00 and the L-chain framework was L4.29. The class of each antibody used was IgG1κ. Full-length recombinant human PAD4 was used as an antigen. A Human Antibody Capture kit (GE Healthcare, BR-1008-39) was used for the affinity assay. Specifically, in accordance with the standard protocol provided by the manufacture, NHS/EDC was used and an amine coupling method, in which a free carboxyl group is fixed on a surface of a CM5 chip, was used to immobilize a rabbit anti-human polyclonal antibody on the surface of a CM5 chip. Next, the humanized anti-PAD4 antibodies were each captured by the rabbit anti-human polyclonal antibody. Human PAD4 at each concentration was subjected to Biacore T200 measurement to create a kinetic sensorgram.

T1 sequence (Q9UM07 whole entry): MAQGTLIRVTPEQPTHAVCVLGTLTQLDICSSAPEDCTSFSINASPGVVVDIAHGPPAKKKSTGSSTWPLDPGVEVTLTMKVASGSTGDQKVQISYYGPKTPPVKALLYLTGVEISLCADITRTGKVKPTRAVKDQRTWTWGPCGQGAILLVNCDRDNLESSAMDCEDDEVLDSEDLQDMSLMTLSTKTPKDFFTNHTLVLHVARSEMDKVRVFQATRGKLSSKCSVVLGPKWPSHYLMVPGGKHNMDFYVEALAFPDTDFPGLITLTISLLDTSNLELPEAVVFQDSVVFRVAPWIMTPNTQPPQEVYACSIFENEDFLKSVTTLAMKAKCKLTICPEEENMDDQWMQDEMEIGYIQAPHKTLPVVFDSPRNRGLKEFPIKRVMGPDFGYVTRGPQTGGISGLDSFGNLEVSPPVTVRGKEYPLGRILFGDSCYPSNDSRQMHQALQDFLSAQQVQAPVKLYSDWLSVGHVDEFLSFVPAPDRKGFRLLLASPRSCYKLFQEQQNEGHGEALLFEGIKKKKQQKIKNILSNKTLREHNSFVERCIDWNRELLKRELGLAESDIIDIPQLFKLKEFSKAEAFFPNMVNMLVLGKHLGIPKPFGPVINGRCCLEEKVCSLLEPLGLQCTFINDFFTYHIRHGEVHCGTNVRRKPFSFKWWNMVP

Row | Binder | EC50 (read off the curve) [1] [ng/mL] | O.D. 490/630 at 0 µg/mL (blank) [1] | O.D. 490/630 at 0.000064 µg/mL [1] | O.D. 490/630 at 0.00032 µg/mL [1] | O.D. 490/630 at 0.0016 µg/mL [1] | O.D. 490/630 at 0.008 µg/mL [1] | O.D. 490/630 at 0.04 µg/mL [1] | O.D. 490/630 at 0.2 µg/mL [1] | O.D. 490/630 at 1 µg/mL [1] | O.D. 490/630 at 0.0078125 µg/mL [4] | O.D. 490/630 at 0.015625 µg/mL [4] | O.D. 490/630 at 0.03125 µg/mL [4] | O.D. 490/630 at 0.0625 µg/mL [4] | O.D. 490/630 at 0.125 µg/mL [4] | O.D. 490/630 at 0.25 µg/mL [4] | O.D. 490/630 at 0.5 µg/mL [4] | O.D. 490/630 at 1 µg/mL [4] | also measured
1 | humanized anti-PAD4 antibody derived from A11 (H4.00/L4.29, IgG1 kappa) (antibody, V domains shown, also called humanized A11) VH: not shown VL: SYELTQPPSVSVSPGQTARITCSGGGRYYYGWYQQKPGQAPVTVIYANDKRPSGIPERFSGSNSGSTTTLTISGVQAEDEADYYCGSAETSSYVFGGGTKLTVLG | ~3 | 0.064 | 0.122 | 0.245 | 0.733 | 1.7 | 2.08 | 2.08 | 2.08 | – | – | – | – | – | – | – | – | –
2 | humanized anti-PAD4 antibody derived from G9 (H4.00/L4.29, IgG1 kappa) (antibody, V domains shown, also called humanized G9) VH: not shown VL: SYELTQPPSVSVSPGQTARITCSGGGRYYYGWYQQKPGQAPVTVIYANDKRPSGIPERFSGSNSGSTTTLTISGVQAEDEADYYCGSAETSSYVFGGGTKLTVLG | ~3 | 0.069 | 0.116 | 0.252 | 0.785 | 1.66 | 2.09 | 2.03 | 2.06 | – | – | – | – | – | – | – | – | –
3 | H7-derived, humanized anti-PAD4 antibody (IgG4A) (antibody, it may be this one; also called humanized anti-PAD4 antibody (IgG4A) derived from H7) heavy: not shown light: SYELTQPPSVSVSPGQTARITCSGGSGRYYYGWYQQKPGQAPVTVIYSSTHRPSGIPERFSGSNSGSTTTLTISGVQAEDEADYYCGTADSSSYVFGGGTKLTVLGQPKAAPSVTLFPPSSEELQANKATLVCLISDFYPGAVTVAWKADSSPVKAGVETTTPSKQSNNKYAASSYLSLTPEQWKSHRSYSCQVTHEGSTVEKTVAPTECS | – | – | – | – | – | – | – | – | – | – | – | – | – | – | – | – | – | EC50 (read off the curve) [2]: ~4 ng/mL
4 | humanized anti-PAD4 antibody derived from G8, VH H4.00 / VL L4.00 (antibody, human IgG1, kappa, V domains shown, IgG1 kappa; also called G8 H4.00/L4.00) VH: not shown VL: SYELTQPPSVSVSPGQTARITCSGGNRNYYYGWYQQKPGQAPVLVIYANDKRPSGIPERFSGSSSGTTVTLTISGVQAEDEADYYCGTADTGKYVFGGGTKLTVLG | – | – | – | – | – | – | – | – | – | 0.131 | 0.247 | 0.454 | 0.806 | 1.31 | 1.7 | 1.84 | 1.88 | EC50 (read off the curve) [3]: ~80 ng/mL
5 | humanized anti-PAD4 antibody derived from G8, VH H4.32 / VL L4.06 (antibody, IgG1, V domains shown, IgG1 kappa; also called G8 H4.32/L4.06) VH: EVQLLESGGGLVQPGGSLRLSCAASGFTFSTYAMGWVRQAPGKGLEFVAAIRNDGSWTGYGAAVKGRVTISRDNSKNTVYLQMNSLRAEDTAVYYCAKYTGSSGGSIGAWGQGTLVTVSS VL: SYELTQPPSVSVSPGQTARITCSGGNRNYYYGWYQQKPGQAPVTVIYANDKRPSGIPERFSGSYSGNTTTLTISGVQAEDEADYYCGTADTGKYVFGGGTKLTVLG | – | – | – | – | – | – | – | – | – | 1.21 | 1.6 | 1.82 | 1.91 | 1.86 | 1.85 | 1.81 | 1.79 | –
6 | humanized anti-PAD4 antibody derived from G8, VH H4.32 / VL L4.29 (antibody, IgG1, V domains shown, IgG1 kappa; also called G8 H4.32/L4.29) VH: EVQLLESGGGLVQPGGSLRLSCAASGFTFSTYAMGWVRQAPGKGLEFVAAIRNDGSWTGYGAAVKGRVTISRDNSKNTVYLQMNSLRAEDTAVYYCAKYTGSSGGSIGAWGQGTLVTVSS VL: SYELTQPPSVSVSPGQTARITCSGGNRNYYYGWYQQKPGQAPVTVIYANDKRPSGIPERFSGSNSGSTTTLTISGVQAEDEADYYCGTADTGKYVFGGGTKLTVLG | – | – | – | – | – | – | – | – | – | 1.26 | 1.69 | 1.88 | 1.9 | 1.89 | 1.85 | 1.84 | 1.84 | –
7 | humanized anti-PAD4 antibody derived from G8, VH H4.32 / VL L4.00 (antibody, IgG1, V domains shown, IgG1 kappa; also called G8 H4.32/L4.00) VH: EVQLLESGGGLVQPGGSLRLSCAASGFTFSTYAMGWVRQAPGKGLEFVAAIRNDGSWTGYGAAVKGRVTISRDNSKNTVYLQMNSLRAEDTAVYYCAKYTGSSGGSIGAWGQGTLVTVSS VL: SYELTQPPSVSVSPGQTARITCSGGNRNYYYGWYQQKPGQAPVLVIYANDKRPSGIPERFSGSSSGTTVTLTISGVQAEDEADYYCGTADTGKYVFGGGTKLTVLG | – | – | – | – | – | – | – | – | – | 0.364 | 0.649 | 1.05 | 1.52 | 1.76 | 1.84 | 1.91 | 1.87 | –
8 | humanized anti-PAD4 antibody derived from G8, VH H4.32 / VL L4.17 (antibody, IgG1, V domains shown, IgG1 kappa; also called G8 H4.32/L4.17) VH: EVQLLESGGGLVQPGGSLRLSCAASGFTFSTYAMGWVRQAPGKGLEFVAAIRNDGSWTGYGAAVKGRVTISRDNSKNTVYLQMNSLRAEDTAVYYCAKYTGSSGGSIGAWGQGTLVTVSS VL: SYELTQPPSVSVSPGQTARITCSGGNRNYYYGWYQQKPGQAPVTVIYANDKRPSGIPERFSGSTSGNTTTLTISGVQAEDEADYYCGTADTGKYVFGGGTKLTVLG | – | – | – | – | – | – | – | – | – | 1.2 | 1.56 | 1.83 | 1.88 | 1.89 | 1.83 | 1.83 | 1.82 | –
9 | humanized anti-PAD4 antibody derived from G8, VH H4.15 / VL L4.29 (antibody, human IgG1, kappa, V domains shown, IgG1 kappa; also called G8 H4.15/L4.29) VH: EVQLLESGGGLVQPGGSLRLSCAASGFTFSTYAMGWVRQAPGKGLEFVSAIRNDGSWTGYGAAVKGRFTISRDNSKNTVYLQMNSLRAEDTAVYYCAKYTGSSGGSIGAWGQGTLVTVSS VL: SYELTQPPSVSVSPGQTARITCSGGNRNYYYGWYQQKPGQAPVTVIYANDKRPSGIPERFSGSNSGSTTTLTISGVQAEDEADYYCGTADTGKYVFGGGTKLTVLG | – | – | – | – | – | – | – | – | – | 1.15 | 1.56 | 1.85 | 1.91 | 1.86 | 1.86 | 1.81 | 1.84 | –
10 | humanized anti-PAD4 antibody derived from G8, VH H4.15 / VL L4.17 (antibody, human IgG1, kappa, V domains shown, IgG1 kappa; also called G8 H4.15/L4.17) VH: EVQLLESGGGLVQPGGSLRLSCAASGFTFSTYAMGWVRQAPGKGLEFVSAIRNDGSWTGYGAAVKGRFTISRDNSKNTVYLQMNSLRAEDTAVYYCAKYTGSSGGSIGAWGQGTLVTVSS VL: SYELTQPPSVSVSPGQTARITCSGGNRNYYYGWYQQKPGQAPVTVIYANDKRPSGIPERFSGSTSGNTTTLTISGVQAEDEADYYCGTADTGKYVFGGGTKLTVLG | – | – | – | – | – | – | – | – | – | 1.24 | 1.66 | 1.86 | 1.93 | 1.87 | 1.81 | 1.82 | 1.83 | –
11 | Humanized Ab #G8-H4.00/L4.29 (antibody, human IgG1, kappa, V domains shown, also called humanized anti-PAD4 antibody derived from G8 (IgG1 kappa); G8 VH H4.00 / VL L4.29) VH: not shown VL: SYELTQPPSVSVSPGQTARITCSGGNRNYYYGWYQQKPGQAPVTVIYANDKRPSGIPERFSGSNSGSTTTLTISGVQAEDEADYYCGTADTGKYVFGGGTKLTVLG | ~2 | 0.069 | 0.139 | 0.287 | 0.851 | 1.79 | 2.12 | 2.1 | 2.06 | 1.2 | 1.55 | 1.88 | 1.88 | 1.85 | 1.84 | 1.82 | 1.8 | Kd [5]: 1.95 nM; koff [5]: 0.0002 s⁻¹; kon [5]: 103000 M⁻¹ s⁻¹
12 | Humanized Ab #H7-H4.00/L4.29 (antibody, human IgG1, kappa, also called humanized anti-PAD4 antibody derived from H7 (IgG1 kappa)) heavy: not shown light: SYELTQPPSVSVSPGQTARITCSGGSGRYYYGWYQQKPGQAPVTVIYSSTHRPSGIPERFSGSNSGSTTTLTISGVQAEDEADYYCGTADSSSYVFGGGTKLTVLGTVAAPSVFIFPPSDEQLKSGTASVVCLLNNFYPREAKVQWKVDNALQSGNSQESVTEQDSKDSTYSLSSTLTLSKADYEKHKVYACEVTHQGLSSPVTKSFNRGEC | ~3 | 0.083 | 0.13 | 0.269 | 0.766 | 1.72 | 2.1 | 2.07 | 2.08 | – | – | – | – | – | – | – | – | Kd [5]: 8.28 nM; koff [5]: 0.000507 s⁻¹; kon [5]: 61300 M⁻¹ s⁻¹
